This note sets out measurements from US20200079833A1 (AstraZeneca / MedImmune, published 2020).

Common to all, as to assay: cell-based or functional assay
Experiment [1] concerns the target GLP-1 receptor (GLP-1R) (human, UniProt P43220 24-463).
The target of experiment [2] is glucagon receptor (GCGR) (human, UniProt P47871 26-477).
Experiment [3] deals with T1, glucose-dependent insulinotropic peptide (gastric inhibitory polypeptide) receptor (GIPR) (human, UniProt P48546 22-466).
T1 sequence (looked up): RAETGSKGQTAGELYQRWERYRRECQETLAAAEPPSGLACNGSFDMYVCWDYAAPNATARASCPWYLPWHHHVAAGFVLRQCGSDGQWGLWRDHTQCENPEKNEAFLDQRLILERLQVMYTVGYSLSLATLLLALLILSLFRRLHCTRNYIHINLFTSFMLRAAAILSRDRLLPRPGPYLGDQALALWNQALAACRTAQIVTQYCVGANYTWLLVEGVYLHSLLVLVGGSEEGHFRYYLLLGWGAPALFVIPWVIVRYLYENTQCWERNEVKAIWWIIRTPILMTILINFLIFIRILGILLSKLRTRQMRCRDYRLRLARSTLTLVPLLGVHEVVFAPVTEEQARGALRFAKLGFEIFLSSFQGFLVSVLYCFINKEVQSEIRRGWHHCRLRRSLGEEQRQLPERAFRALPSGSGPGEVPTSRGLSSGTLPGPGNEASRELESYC

Starred links: 1 amine or outer side, 2 acyl side, 3 side chain; linkers in the order of their positions; H or OH if unused. Non-standard residues stand in square brackets, D forms with d. Groups on a side chain read outwards from the residue. Primed or numbered codes have the meaning given here. No end group written: not given here. *: point of attachment. Dodecylbenzoate = dodecylbenzoyl lipid group; γGlu = O=C(O)[C@H](CCC(=O)[*:2])N[*:1]; Stearoyl = CCCCCCCCCCCCCCCCCC(=O)*; αMeF = C[C@](N)(Cc1ccccc1)C(=O)O; αMeK = C[C@](N)(CCCCN)C(=O)O; αMeS = C[C@](N)(CO)C(=O)O; PEG2′ = not defined here; Aib = CC(C)(N)C(=O)O; Ahx = NCCCCCC(=O)O

Chain of glucagon receptor (GCGR) (P47871 26-477): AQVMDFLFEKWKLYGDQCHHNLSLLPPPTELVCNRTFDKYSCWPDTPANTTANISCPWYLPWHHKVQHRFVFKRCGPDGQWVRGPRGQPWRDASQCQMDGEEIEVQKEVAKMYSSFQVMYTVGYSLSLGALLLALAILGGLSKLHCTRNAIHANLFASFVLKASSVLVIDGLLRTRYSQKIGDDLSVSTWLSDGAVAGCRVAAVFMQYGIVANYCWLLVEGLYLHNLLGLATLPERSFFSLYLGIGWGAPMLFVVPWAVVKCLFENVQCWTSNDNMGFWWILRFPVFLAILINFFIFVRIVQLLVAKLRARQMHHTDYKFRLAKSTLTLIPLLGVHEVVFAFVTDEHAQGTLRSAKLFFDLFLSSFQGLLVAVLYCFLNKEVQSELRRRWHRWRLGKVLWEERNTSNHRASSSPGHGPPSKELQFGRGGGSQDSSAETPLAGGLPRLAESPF

H[Aib]EGS[αMeF]TSDV[αMeS]S[αMeF]LEGEAA[αMeK]E[αMeF]IA[αMeF]VVK([PEG2′-PEG2′-Dodecylbenzoate])GG-NH2 [SEQ ID NO 180]: in experiment [1], the “Primary assay EC50 (cAMP), GLP-1R n1” value worked out at 0.0032 nM; the “Primary assay EC50 (cAMP), GLP-1R n2” value was determined as 0.0011 nM; the “Primary assay EC50 (cAMP), Mean pM GLP-1R” value came out at 2.2 pM. Besides, in experiment [2], the “Primary assay EC50 (cAMP), Gluc-R, first run” value came to 26 nM and the “Primary assay EC50 (cAMP), Gluc-R, second run” value is 26 nM. In experiment [3], the “Primary assay EC50 (cAMP), GIP-R, first run” value came out at 26 nM and the “Primary assay EC50 (cAMP), GIP-R, second run” value worked out at 26 nM.

B1: SEQ ID NO 182 (peptide)
peptide: H[Aib]EGS[αMeF]TSDV[αMeS]S[αMeF]LEGEAA[αMeK]E[αMeF]IA[αMeF]VVK([γGlu-Stearoyl])GG-NH2
modifications: N-terminus assumed
SMILES: CCCCCCCCCCCCCCCCCC(=O)N[C@@H](CCC(=O)NCCCC[C@H](NC(=O)[C@@H](NC(=O)[C@@H](NC(=O)[C@](C)(Cc1ccccc1)NC(=O)[C@H](C)NC(=O)[C@@H](NC(=O)[C@](C)(Cc1ccccc1)NC(=O)[C@H](CCC(=O)O)NC(=O)[C@](C)(CCCCN)NC(=O)[C@H](C)NC(=O)[C@H](C)NC(=O)[C@H](CCC(=O)O)NC(=O)CNC(=O)[C@H](CCC(=O)O)NC(=O)[C@H](CC(C)C)NC(=O)[C@](C)(Cc1ccccc1)NC(=O)[C@H](CO)NC(=O)[C@](C)(CO)NC(=O)[C@@H](NC(=O)[C@H](CC(=O)O)NC(=O)[C@H](CO)NC(=O)[C@@H](NC(=O)[C@](C)(Cc1ccccc1)NC(=O)[C@H](CO)NC(=O)CNC(=O)[C@H](CCC(=O)O)NC(=O)C(C)(C)NC(=O)[C@@H](N)Cc1c[nH]cn1)[C@@H](C)O)C(C)C)[C@@H](C)CC)C(C)C)C(C)C)C(=O)NCC(=O)NCC(N)=O)C(=O)O
On to B1, for which, in experiment [1], the “Primary assay EC50 (cAMP), GLP-1R n1” value was found to be 0.13 nM; the “Primary assay EC50 (cAMP), GLP-1R n2” value amounted to 0.052 nM; the “Primary assay EC50 (cAMP), Mean pM GLP-1R” value was 89.9 pM. For the same molecule, in experiment [2], the “Primary assay EC50 (cAMP), Gluc-R, first run” value was 28 nM and the “Primary assay EC50 (cAMP), Gluc-R, second run” value amounted to 28 nM. Also, in experiment [3], the “Primary assay EC50 (cAMP), GIP-R, first run” value stood at 28 nM and the “Primary assay EC50 (cAMP), GIP-R, second run” value was determined as 28 nM.

B2: SEQ ID NO 183 (peptide)
peptide: H[Aib]EGS[αMeF]TSDV[αMeS]S[αMeF]LEGEAA[αMeK]E[αMeF]IA[αMeF]VVK([γGlu-γGlu-Stearoyl])GG-NH2
modifications: N-terminus assumed
SMILES: CCCCCCCCCCCCCCCCCC(=O)N[C@@H](CCC(=O)N[C@@H](CCC(=O)NCCCC[C@H](NC(=O)[C@@H](NC(=O)[C@@H](NC(=O)[C@](C)(Cc1ccccc1)NC(=O)[C@H](C)NC(=O)[C@@H](NC(=O)[C@](C)(Cc1ccccc1)NC(=O)[C@H](CCC(=O)O)NC(=O)[C@](C)(CCCCN)NC(=O)[C@H](C)NC(=O)[C@H](C)NC(=O)[C@H](CCC(=O)O)NC(=O)CNC(=O)[C@H](CCC(=O)O)NC(=O)[C@H](CC(C)C)NC(=O)[C@](C)(Cc1ccccc1)NC(=O)[C@H](CO)NC(=O)[C@](C)(CO)NC(=O)[C@@H](NC(=O)[C@H](CC(=O)O)NC(=O)[C@H](CO)NC(=O)[C@@H](NC(=O)[C@](C)(Cc1ccccc1)NC(=O)[C@H](CO)NC(=O)CNC(=O)[C@H](CCC(=O)O)NC(=O)C(C)(C)NC(=O)[C@@H](N)Cc1c[nH]cn1)[C@@H](C)O)C(C)C)[C@@H](C)CC)C(C)C)C(C)C)C(=O)NCC(=O)NCC(N)=O)C(=O)O)C(=O)O
With B2, in experiment [1], the “Primary assay EC50 (cAMP), GLP-1R n1” value came out at 0.064 nM; the “Primary assay EC50 (cAMP), GLP-1R n2” value came to 0.018 nM; the “Primary assay EC50 (cAMP), Mean pM GLP-1R” value is 40.9 pM. Besides, in experiment [2], the “Primary assay EC50 (cAMP), Gluc-R, first run” value amounted to 27 nM and the “Primary assay EC50 (cAMP), Gluc-R, second run” value came to 27 nM. In experiment [3], the “Primary assay EC50 (cAMP), GIP-R, first run” value worked out at 27 nM and the “Primary assay EC50 (cAMP), GIP-R, second run” value was 27 nM.
For the molecule H[Aib]EGS[αMeF]TSDV[αMeS]S[αMeF]LEGEAA[αMeK]E[αMeF]IA[αMeF]VVK([PEG2′-PEG2′-PEG2′-Dodecylbenzoate])GG-NH2 [SEQ ID NO 181], in experiment [1], the “Primary assay EC50 (cAMP), GLP-1R n1” value was found to be 0.0021 nM; the “Primary assay EC50 (cAMP), GLP-1R n2” value came out at 0.00083 nM; the “Primary assay EC50 (cAMP), Mean pM GLP-1R” value turned out to be 1.5 pM. Besides, in experiment [2], the “Primary assay EC50 (cAMP), Gluc-R, first run” value came out at 25 nM and the “Primary assay EC50 (cAMP), Gluc-R, second run” value turned out to be 25 nM. Further, in experiment [3], the “Primary assay EC50 (cAMP), GIP-R, first run” value turned out to be 25 nM and the “Primary assay EC50 (cAMP), GIP-R, second run” value was 25 nM.

B3: SEQ ID NO 185 (peptide)
peptide: H[Aib]EGS[αMeF]TSDV[αMeS]S[αMeF]LEGEAA[αMeK]E[αMeF]IA[αMeF]VVK([Ahx-Stearoyl])GG-NH2
modifications: N-terminus assumed
SMILES: CCCCCCCCCCCCCCCCCC(=O)NCCCCCC(=O)NCCCC[C@H](NC(=O)[C@@H](NC(=O)[C@@H](NC(=O)[C@](C)(Cc1ccccc1)NC(=O)[C@H](C)NC(=O)[C@@H](NC(=O)[C@](C)(Cc1ccccc1)NC(=O)[C@H](CCC(=O)O)NC(=O)[C@](C)(CCCCN)NC(=O)[C@H](C)NC(=O)[C@H](C)NC(=O)[C@H](CCC(=O)O)NC(=O)CNC(=O)[C@H](CCC(=O)O)NC(=O)[C@H](CC(C)C)NC(=O)[C@](C)(Cc1ccccc1)NC(=O)[C@H](CO)NC(=O)[C@](C)(CO)NC(=O)[C@@H](NC(=O)[C@H](CC(=O)O)NC(=O)[C@H](CO)NC(=O)[C@@H](NC(=O)[C@](C)(Cc1ccccc1)NC(=O)[C@H](CO)NC(=O)CNC(=O)[C@H](CCC(=O)O)NC(=O)C(C)(C)NC(=O)[C@@H](N)Cc1c[nH]cn1)[C@@H](C)O)C(C)C)[C@@H](C)CC)C(C)C)C(C)C)C(=O)NCC(=O)NCC(N)=O
As for B3, in experiment [1], the “Primary assay EC50 (cAMP), GLP-1R n1” value is 0.38 nM; the “Primary assay EC50 (cAMP), GLP-1R n2” value worked out at 0.12 nM; the “Primary assay EC50 (cAMP), Mean pM GLP-1R” value is 251 pM. Also, in experiment [2], the “Primary assay EC50 (cAMP), Gluc-R, first run” value turned out to be 28 nM and the “Primary assay EC50 (cAMP), Gluc-R, second run” value stood at 28 nM. Besides, in experiment [3], the “Primary assay EC50 (cAMP), GIP-R, first run” value stood at 28 nM and the “Primary assay EC50 (cAMP), GIP-R, second run” value is 28 nM.

B4: SEQ ID NO 186 (peptide)
peptide: H[Aib]EGS[αMeF]TSDV[αMeS]S[αMeF]LEGEAA[αMeK]E[αMeF]IA[αMeF]VVK([Ahx-Ahx-Stearoyl])GG-NH2
modifications: N-terminus assumed
SMILES: CCCCCCCCCCCCCCCCCC(=O)NCCCCCC(=O)NCCCCCC(=O)NCCCC[C@H](NC(=O)[C@@H](NC(=O)[C@@H](NC(=O)[C@](C)(Cc1ccccc1)NC(=O)[C@H](C)NC(=O)[C@@H](NC(=O)[C@](C)(Cc1ccccc1)NC(=O)[C@H](CCC(=O)O)NC(=O)[C@](C)(CCCCN)NC(=O)[C@H](C)NC(=O)[C@H](C)NC(=O)[C@H](CCC(=O)O)NC(=O)CNC(=O)[C@H](CCC(=O)O)NC(=O)[C@H](CC(C)C)NC(=O)[C@](C)(Cc1ccccc1)NC(=O)[C@H](CO)NC(=O)[C@](C)(CO)NC(=O)[C@@H](NC(=O)[C@H](CC(=O)O)NC(=O)[C@H](CO)NC(=O)[C@@H](NC(=O)[C@](C)(Cc1ccccc1)NC(=O)[C@H](CO)NC(=O)CNC(=O)[C@H](CCC(=O)O)NC(=O)C(C)(C)NC(=O)[C@@H](N)Cc1c[nH]cn1)[C@@H](C)O)C(C)C)[C@@H](C)CC)C(C)C)C(C)C)C(=O)NCC(=O)NCC(N)=O
With B4, in experiment [1], the “Primary assay EC50 (cAMP), GLP-1R n1” value came to 0.13 nM; the “Primary assay EC50 (cAMP), GLP-1R n2” value was determined as 0.05 nM; the “Primary assay EC50 (cAMP), Mean pM GLP-1R” value is 87.5 pM. In experiment [2], the “Primary assay EC50 (cAMP), Gluc-R, first run” value was 27 nM and the “Primary assay EC50 (cAMP), Gluc-R, second run” value came to 27 nM. Further, in experiment [3], the “Primary assay EC50 (cAMP), GIP-R, first run” value came out at 27 nM and the “Primary assay EC50 (cAMP), GIP-R, second run” value was 27 nM.

B5: SEQ ID NO 184 (peptide)
peptide: H[Aib]EGS[αMeF]TSDV[αMeS]S[αMeF]LEGEAA[αMeK]E[αMeF]IA[αMeF]VVK([γGlu-γGlu-γGlu-Stearoyl])GG-NH2
modifications: N-terminus assumed
SMILES: CCCCCCCCCCCCCCCCCC(=O)N[C@@H](CCC(=O)N[C@@H](CCC(=O)N[C@@H](CCC(=O)NCCCC[C@H](NC(=O)[C@@H](NC(=O)[C@@H](NC(=O)[C@](C)(Cc1ccccc1)NC(=O)[C@H](C)NC(=O)[C@@H](NC(=O)[C@](C)(Cc1ccccc1)NC(=O)[C@H](CCC(=O)O)NC(=O)[C@](C)(CCCCN)NC(=O)[C@H](C)NC(=O)[C@H](C)NC(=O)[C@H](CCC(=O)O)NC(=O)CNC(=O)[C@H](CCC(=O)O)NC(=O)[C@H](CC(C)C)NC(=O)[C@](C)(Cc1ccccc1)NC(=O)[C@H](CO)NC(=O)[C@](C)(CO)NC(=O)[C@@H](NC(=O)[C@H](CC(=O)O)NC(=O)[C@H](CO)NC(=O)[C@@H](NC(=O)[C@](C)(Cc1ccccc1)NC(=O)[C@H](CO)NC(=O)CNC(=O)[C@H](CCC(=O)O)NC(=O)C(C)(C)NC(=O)[C@@H](N)Cc1c[nH]cn1)[C@@H](C)O)C(C)C)[C@@H](C)CC)C(C)C)C(C)C)C(=O)NCC(=O)NCC(N)=O)C(=O)O)C(=O)O)C(=O)O
In the case of B5, in experiment [1], the “Primary assay EC50 (cAMP), GLP-1R n1” value was determined as 0.047 nM; the “Primary assay EC50 (cAMP), GLP-1R n2” value is 0.012 nM; the “Primary assay EC50 (cAMP), Mean pM GLP-1R” value came out at 29.5 pM. Besides, in experiment [2], the “Primary assay EC50 (cAMP), Gluc-R, first run” value stood at 26 nM and the “Primary assay EC50 (cAMP), Gluc-R, second run” value came to 26 nM. Further, in experiment [3], the “Primary assay EC50 (cAMP), GIP-R, first run” value was 26 nM and the “Primary assay EC50 (cAMP), GIP-R, second run” value worked out at 26 nM.
